Substitutions are numbered along the chain they refer to. Where “and” joins values, the source holds several entries; their conditions need not be identical. Equal values may be shown once.
B1: anti-CCR8 mAb 1-15 (antibody, V domains shown)
VH: EVQLQQSGPELVKPGASVKISCKTSGYTFTEYTMHWVKQSHGKSLEWIGGINPNNGDTNYNQKFMGKATLTVDKSSSTAYMELRSLTSEDSAVYYCVRRLLRRGAMDYWGQGTSVTVSS
VL: DIVLTQSPASLAVSLGQRATISCRASENVEYYGTSLMQWFQQKPGQPPKLLIYAASNVDSGVPARFSGSGSGTDFSLNIHPVEEDDIAMYFCQQSRKVPWTFGGGTKLDIK
notes: Murine hybridoma mAb
B2: anti-CCR8 mAb 1-11 (antibody, V domains shown)
VH: QVQLQQPGAELVKPGASVKMSCKATGYTFTGYNMHWVKQTPGQGLEWIGAISPGKGDTSYNLKFKGKATLTTDKSSSTAYMQLSSLTSADSAVYYCARSGGTPFAYWGQGTLVTVSA
VL: DVVMTQTPLSLPVSLGDQASISCRSSQSLVHSNGDTYLYWYLQKPGQSPKLLIYKVSNRFSGVPDRFSGSGSGTDFTLKINRVEAEDLGVYFCSQSTHVPYTFGGGTKLEIK
notes: Murine hybridoma mAb
B3: anti-CCR8 mAb 1-2 (antibody, V domains shown)
VH: EVQLVESGGGLVQPKGSLKLSCAASGFTFNTYAMNWVRQAPGKGLEWVARIRSKSNNYATYYADSVKDRFTISRDDSQSMLYLQMNNLKTEDTAMYYCVRGREAYYRYDGGYYAMDYWGQGTSVTVSS
VL: DIVMTQAAPSVPVTPGESVSISCRSSKSLLHSNGNTYLYWFLQRPGQSPQLLIYRMSNLASGVPDRFSGSGSGTAFTLRISRVEAEDVGVYYCMQHLEYPFTFGSGTKLEIK
notes: Murine hybridoma mAb
B4: anti-CCR8 mAb 1-8 (antibody, V domains shown)
VH: B3 VH with K19R, T31A, A63G, S79T, G111D
VL: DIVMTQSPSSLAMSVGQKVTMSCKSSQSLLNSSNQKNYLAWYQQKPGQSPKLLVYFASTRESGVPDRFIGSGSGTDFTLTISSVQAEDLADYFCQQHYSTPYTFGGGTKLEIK
notes: Murine hybridoma mAb
B5: anti-CCR8 mAb 1-1 (antibody, V domains shown)
VH: B3 VH with V5L, T31P, K43R, S79D, G111D
VL: B3 VL
notes: Murine hybridoma mAb
B6: anti-CCR8 mAb 1-4 (antibody, V domains shown)
VH: B3 VH with K15T, K19R, T31A, N57D, A63G
VL: B3 VL with P12S, R24T, L97R
notes: Murine hybridoma mAb

Target: T1, human CCR8 (human, UniProt P51685 1-355)
T1 construct: also called hCCR8; CC chemokine receptor 8
Assay: flow cytometry, inhibition of hCCL1-AF647 (10 nM) binding to hCCR8-CHO cells
Protocol: The hCCR8 transfected CHO cell line was dispatched at a density of 1.105 per well in a 96-well plate. Cells were incubated for 30 min at 4° C. with or without anti-CCR8 mAb tested at 10 μg/mL then diluted at 1/3. Unbound antibodies were washed away with PBS (Gibco, Villebon-sur-yvette, France) supplemented by 2% Fetal Bovine Serum (Invitrogen by Thermofisher Scientific, Illkirch-Graffenstaden, France) and 2 mM EDTA. […] After washing unbound ligands, CCL1 bound detection is quantified on a MacsQuant16 (Miltenyi, Gladbach, Germany) (R1 channel, 5 000 events per acquisition).
For IC₅₀ determination, a concentration response curve is performed using 8 concentrations of mAb. Curves are fitted and IC₅₀ of CCL1 binding blocking activity is calculated using the sigmoidal dose-response (variable slope) model on GraphPad Prism 9 (GraphPad Software, San Diego, CA, USA).

IC50	Binder
0.75 µg/mL and 5.01 nM	B1
0.72 µg/mL and 4.82 nM	B2
0.83 µg/mL and 5.55 nM	B3
2.55 µg/mL and 17.1 nM	B4
1.02 µg/mL and 6.83 nM	B5
1.93 µg/mL and 12.9 nM	B6

Target: T2, pm8 (Y15, Y16 and Y17 sulfated)
T2 construct: also called sulfated CCR8 N-terminal peptide pm8
T2 sequence (peptide, as listed by the source): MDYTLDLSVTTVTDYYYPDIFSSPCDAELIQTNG
Assay: ELISA on coated peptide [cont.]
Protocol: (§1) The specific binding properties of antibodies were evaluated by ELISA with coated CCR8 related peptides (500 ng/ml) in carbonate/bicarbonate buffer. Different peptides were used as described in Table 1 (see Example 1). Each anti-CCR8 mAb was tested at 1 μg/mL then diluted at 1/10. After an incubation at room temperature during 90 min, unbound mAbs were removed by washings. […] After washings, 3,3′,5,5′-tetramethylbenzidine (TMB) (Interchim, Montluçon, France) was added for 15 min. Then the optical density (OD) was determined by using a multiplate reader (Tecan, Lyon, France) and correlated with mAb reactivity on the panel of coated peptides.

binding result	Binder
binds	B1
binds	B2
binds	B3
binds	B4
binds	B5
binds	B6

Target: T3, pm5 (Y15 and Y17 sulfated; Y16 not sulfated)
T3 construct: also called sulfated CCR8 N-terminal peptide pm5
T3 sequence (peptide, as listed by the source): as above
Assay: ELISA on coated peptide [cont.]
Protocol: as §1

binding result	Binder
binds	B1
binds	B2
binds	B3
binds	B4
binds	B5
binds	B6

Target: T4, pm6 (Y16 and Y17 sulfated; Y15 not sulfated)
T4 construct: also called sulfated CCR8 N-terminal peptide pm6
T4 sequence (peptide, as listed by the source): as above
Assay: ELISA on coated peptide [cont.]
Protocol: as §1

binding result	Binder
binds	B1
binds	B2
binds	B3
binds	B4
binds	B5
binds	B6

Target: T5, pm3 (Y17 sulfated; Y15 and Y16 not sulfated)
T5 construct: also called sulfated CCR8 N-terminal peptide pm3
T5 sequence (peptide, as listed by the source): as above
Assay: ELISA on coated peptide [cont.]
Protocol: as §1

binding result	Binder
binds	B1
binds	B2
binds	B3
binds	B4
binds	B5
binds	B6

Target: T1, human CCR8
Assay: cell-based or functional assay

IC50 of CCL1-induced hCCR8 Gi2 signaling (BRET), pH 6.5	IC50 of CCL1-induced hCCR8 Gi2 signaling (BRET), pH 7.4	Binder
0.03 µg/ml and 0.198 nM	0.031 µg/ml and 0.21 nM	B3
0.053 µg/ml and 0.355 nM	0.063 µg/ml and 0.421 nM	B4
0.021 µg/ml and 0.143 nM	0.024 µg/ml and 0.163 nM	B5
0.034 µg/ml and 0.225 nM	0.065 µg/ml and 0.434 nM	B6

Target: T1, human CCR8
Assay: flow cytometry, hCCR8-transfected CHO-K1 cells
Protocol: Briefly, 1.10⁵ cells per well in a 96 well plate were incubated with a dilution of unconjugated anti-CCR8 mAb at 10 μg/mL then diluted at 1/3.33, 4 dilution points (during 30 min at 4° C.). In human activated T cells model, prior to mAb incubation, cells were first incubated with 200 nM of hCCL1 (R&D Systems, Minneapolis, MN, USA) or buffer PBS (Invitrogen by Thermofisher Scientific, Illkirch-Graffenstaden, France) supplemented by 2% Fetal Bovine Serum (Invitrogen by Thermofisher Scientific, Illkirch-Graffenstaden, France) and 2 mM EDTA (Invitrogen by Thermofisher Scientific, Illkirch-Graffenstaden, France) during 1 hour at 4° C. To determine EC50 value, 8 concentrations of anti-CCR8 mAb were tested. Unbound antibodies were washed away with PBS (Invitrogen by Thermofisher Scientific, Illkirch-Graffenstaden, France) supplemented by 2% Fetal Bovine Serum (Invitrogen by Thermofisher Scientific, Illkirch-Graffenstaden, France) and 2 mM EDTA (Invitrogen by Thermofisher Scientific, Illkirch-Graffenstaden, France). Subsequently, cells are centrifuged (5 min at 400 g) and bound antibody is detected with F(ab′)2-Goat anti-Mouse IgG (H+L) Cross-Adsorbed Secondary Antibody, Alexa Fluor 488 (dilution 1/500) (Invitrogen by Thermofisher Scientific, Illkirch-Graffenstaden, France) or with F(ab′)₂-Goat anti-Human IgG Fc Secondary Antibody, PE (Invitrogen by Thermofisher Scientific, Illkirch-Graffenstaden, France) (dilution 1/1000) at 4° C. for 30 min. Detection reagent is washed away and cells are centrifuged (5 min at 400 g) and resuspended in 30 μL PBS. Bound detection antibody is quantified on a MacsQuant16 (Miltenyi, Gladbach, Germany) (B1 or B2 channel, 5000 events per acquisition). During the experiment, the respective isotype mAb controls (mouse IgG1, mouse IgG2a, mouse IgG2b, mouse IgG3 or human IgG1) (Biolegend, Amsterdam, The Netherlands) are included to exclude any unspecific binding events. EC50 values were determined via nonlinear fit “log (agonist) vs.response—Variable slope (four parameters)” function of Graphpad prism. EC50 values were not constantly determined in the same experiments.

% positive cells	MFI fold change to isotype ctrl	Binder
73.4%	6.52 fold	B1
76.2%	8.37 fold	B2
90.6%	22.7 fold	B3
68.5%	5.12 fold	B4
72.8%	6.32 fold	B5
66.8%	5.06 fold	B6

Target: T1, human CCR8
Assay: cell-based or functional assay
Remark: another data set of the same source

residual hCCL1 (100 nM) Gi2 response, protocol #2, mAb 0.08 µg/mL	residual hCCL1 (100 nM) Gi2 response, protocol #2, mAb 0.4 µg/mL	residual hCCL1 (100 nM) Gi2 response, protocol #2, mAb 10 µg/mL	residual hCCL1 (100 nM) Gi2 response, protocol #3, mAb 0.05 µg/mL	residual hCCL1 (100 nM) Gi2 response, protocol #3, mAb 0.5 µg/mL	residual hCCL1 (100 nM) Gi2 response, protocol #3, mAb 5 µg/mL	Binder
99%	102%	95%	102%	97%	67%	B1
			102%	98%	84%	B2
60%	36%	19%	74%	68%	48%	B3
70%	44%	51%	78%	55%	43%	B4
81%	69%	44%	77%	57%	49%	B5
72%	49%	28%	75%	36%	22%	B6

Target: T1, human CCR8
Assay: cell-based or functional assay
Remark: another data set of the same source

extrapolated top plateau of hCCL1 curve with 5 µg/mL mAb, protocol #3	Binder
135000 % of hCCL1 (100 nM)	B1
2880 % of hCCL1 (100 nM)	B2
640000 % of hCCL1 (100 nM)	B3
511000 % of hCCL1 (100 nM)	B4
760000 % of hCCL1 (100 nM)	B5
313000 % of hCCL1 (100 nM)	B6

Target: T1, human CCR8
Assay: cell-based or functional assay
Remark: another data set of the same source

IC50 of CCL1-induced hCCR8 Gi2 signaling (BRET, HEK-293)	Binder
0.019 µg/mL and 0.129 nM	B1
0.129 µg/mL and 0.86 nM	B2
0.191 nM and 0.029 µg/mL	B3
0.031 µg/mL and 0.209 nM	B4
0.023 µg/mL and 0.153 nM	B5
0.034 µg/mL and 0.227 nM	B6
